According to patent US20210079115A1 (Janssen / Centocor, published 2021):

Molecular target: full length human PSMA on cells (LNCaP, C4-2B, LNCaP AR, 22RV1 prostate tumor cells; human tissue) (human, UniProt Q04609 1-750)
Test: cell-based or functional assay

Sequence of full length human PSMA on cells (LNCaP, C4-2B, LNCaP AR, 22RV1 prostate tumor cells; human tissue) (Q04609 whole entry): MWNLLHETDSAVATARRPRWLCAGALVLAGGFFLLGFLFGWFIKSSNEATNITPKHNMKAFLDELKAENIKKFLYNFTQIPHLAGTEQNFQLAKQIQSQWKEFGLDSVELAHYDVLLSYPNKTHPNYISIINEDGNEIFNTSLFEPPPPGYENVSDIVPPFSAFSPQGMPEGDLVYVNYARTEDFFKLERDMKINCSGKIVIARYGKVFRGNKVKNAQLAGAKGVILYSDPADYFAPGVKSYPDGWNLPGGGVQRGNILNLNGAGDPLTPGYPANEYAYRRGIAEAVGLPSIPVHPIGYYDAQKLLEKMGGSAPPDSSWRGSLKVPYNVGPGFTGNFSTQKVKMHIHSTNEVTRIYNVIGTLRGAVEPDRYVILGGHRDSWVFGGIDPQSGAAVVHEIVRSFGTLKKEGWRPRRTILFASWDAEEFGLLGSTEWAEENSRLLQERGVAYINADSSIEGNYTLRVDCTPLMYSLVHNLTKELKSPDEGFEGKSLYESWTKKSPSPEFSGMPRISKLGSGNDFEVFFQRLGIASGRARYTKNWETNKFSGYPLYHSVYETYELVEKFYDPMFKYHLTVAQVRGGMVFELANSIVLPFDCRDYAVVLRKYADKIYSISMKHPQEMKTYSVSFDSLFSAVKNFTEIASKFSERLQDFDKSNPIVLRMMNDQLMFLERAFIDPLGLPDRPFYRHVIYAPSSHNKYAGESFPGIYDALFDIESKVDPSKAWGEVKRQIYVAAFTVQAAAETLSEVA

B1: PS3B27 PSMA×CD3 bispecific antibody (PSMB127 × CD3B219) (bispecific antibody, human IgG4 S228P, kappa, lambda, F234A L235A)
heavy 1: not shown
light 1: not shown
heavy 2: EVQLVESGGGLVQPGGSLRLSCAASGFTFNTYAMNWVRQAPGKGLEWVARIRSKYNNYATYYAASVKGRFTISRDDSKNSLYLQMNSLKTEDTAVYYCARHGNFGNSYVSWFAYWGQGTLVTVSSASTKGPSVFPLAPCSRSTSESTAALGCLVKDYFPEPVTVSWNSGALTSGVHTFPAVLQSSGLYSLSSVVTVPSSSLGTKTYTCNVDHKPSNTKVDKRVESKYGPPCPPCPAPEAAGGPSVFLFPPKPKDTLMISRTPEVTCVVVDVSQEDPEVQFNWYVDGVEVHNAKTKPREEQFNSTYRVVSVLTVLHQDWLNGKEYKCKVSNKGLPSSIEKTISKAKGQPREPQVYTLPPSQEEMTKNQVSLTCLVKGFYPSDIAVEWESNGQPENNYKTTPPVLDSDGSFLLYSKLTVDKSRWQEGNVFSCSVMHEALHNHYTQKSLSLSLGK
light 2: QTVVTQEPSLTVSPGGTVTLTCRSSTGAVTTSNYANWVQQKPGQAPRGLIGGTNKRAPGTPARFSGSLLGGKAALTLSGVQPEDEAEYYCALWYSNLWVFGGGTKLTVLGQPKAAPSVTLFPPSSEELQANKATLVCLISDFYPGAVTVAWKADSSPVKAGVETTTPSKQSNNKYAASSYLSLTPEQWKSHRSYSCQVTHEGSTVEKTVAPTECS
- T cell activation (CD25 expression) median EC50, C4-2B cells co-cultured with donor T cells, 48 hours: 0.06 nM
- T cell dependent cytotoxicity median EC50, C4-2B cells, E:T 3:1, 72 hours: 0.08 nM
